We go through 2 substances from patent US5130298A, “Stabilized compositions containing epidermal growth factor” (Ethicon, Inc., priority 1989, dated 1992).

Data set [1] is described as follows: Stability of precipitated EGF at pH 4.6, 7 days at 46° C., with or without zinc ion, reverse phase HPLC. Type of data set: physicochemical. As to conditions: pH 4.6, precipitated, sodium acetate buffer. How it is done: (§1) The zinc-EGF complex must be dissociated before HPLC analysis because the complex cannot be run on the HPLC column as is. Therefore, prior to HPLC, the pH of the samples to be analyzed was adjusted to 3.0. Alternatively, EDTA (a chelating agent) may be used to reverse crystallization. Reverse phase HPLC was conducted using a Vydac C-4 column (4.6 mm×25 cm, 5μm). The flow rate was 0.8 ml/min at 26° C. using a linear gradient of 26% to 32% acetonitrile (0.1% TFA) over 26 minutes.
This experiment was designed to answer the stability of the zinc-EGF complex results from the exclusion of water by the large and insoluble complex or alternatively from the direct interaction of zinc ion with specific amino acids in the protein. A zinc-EGF solution and control were prepared as in Example 1 and the samples were adjusted to a PH of 4.6. At this pH EGF naturally precipitates out of solution since it is at its isoelectric point. Two sets of the precipitated EGF at pH 4.6 in sodium acetate buffer were incubated for 7 days at 46° C.

Data set [2] is described as follows: EGF stability with zinc ion at pH 5.5 to 6.5, aged 28 days at 46° C., reverse phase HPLC of Peaks C, D, X, Y. It is filed as physicochemical. How it is done:
Recombinantly produced human EGF (Chiron Corporation, Emeryville, Calif.) was used in the following experiments. EGF stability with zinc ion was tested at pH 5.5 to 6.5. Lyophilized EGF was reconstituted in 50 mM sodium acetate at PH 5.5. A solution of zinc chloride was then added to this EGF solution. Alternatively, a solution of zinc acetate or crystals of a zinc salt could have been added.
The samples were permitted to age over a 28 day period and then HPLC analysis was used to study the structural changes involving the formation of new species (e.g., Peaks C, X and Y) of EGF under various storage conditions and in the presence of new formulations. Reverse phase HPLC can be used for quantitative and qualitative analysis of EGF.
as §1

For “With Zn++: complex ion wherein zinc is coordinately bound to recombinant human EGF; precipitates at pH 4.0-7.0”, in data set [1], the “% Peak C” value is listed as 2%, the “% Peak X” value came to 7% and the “% Peak Y” value turned out to be 0%. Further, in data set [2] (pH 5.5, 28 days at 46° C.), the “% Peak C” value worked out at 3%, the “% Peak D (native EGF)” value turned out to be 82% and the “% Peak X” value stood at 0%. In data set [2] (pH 6.0, 28 days at 46° C.), the “% Peak C” value is given as 3%, the “% Peak D (native EGF)” value is listed as 75% and the “% Peak X” value was determined as 4%. Besides, in data set [2] (pH 6.5, 28 days at 46° C.), the “% Peak C” value is 1% and the “% Peak X” value stood at 0%.

Turning to “Without Zn++: Recombinantly produced human epidermal growth factor (Chiron Corporation), 53 amino acid polypeptide, without zinc; control”, in data set [1], the “% Peak C” value was found to be 0%, the “% Peak D (native EGF)” value was determined as 47%, the “% Peak X” value is on record as 26% and the “% Peak Y” value was found to be 27%. In addition, in data set [2] (pH 5.5, 28 days at 46° C.), the “% Peak C” value is recorded as 3%, the “% Peak D (native EGF)” value came out at 30% and the “% Peak Y” value was 25%. Besides, in data set [2] (pH 6.0, 28 days at 46° C.), the “% Peak C” value came to 6%, the “% Peak D (native EGF)” value amounted to 51% and the “% Peak Y” value was determined as 21%. In data set [2] (pH 6.5, 28 days at 46° C.), the “% Peak C” value was 6%, the “% Peak D (native EGF)” value is 52% and the “% Peak Y” value worked out at 21%.
